The text below walks through data of patent publication US8148141 (HIPEP LABORATORIES, dated 2012).

Ends that are not written are not given here. carboxyfluorescein = carboxyfluorescein (fluorescent group); ethyldansyl = not defined here

Assay [1] deals with T1, calmodulin (Homo sapiens (Human), UniProt P0DP23 2-149). In words: fluorescence of immobilized labeled peptide on glass chip, ex 490 nm / em 520 nm, calmodulin solution, 25 C, 5 min.
For assay [2], the target named is T1, calmodulin. Put plainly: fluorescence of immobilized labeled peptide on glass chip, ex 340 nm / em 480 nm, plate reader, 1.0 uM calmodulin, 25 C, 5 min.

B1: Lys(Rf3)-Leu-Lys-Lys-Leu-Leu-Lys-Leu-Leu-Lys-Lys-Leu-Leu-Lys-Leu-Cys-NH2 (peptide)
peptide: K(carboxyfluorescein)LKKLLKLLKKLLKLC-NH2
notes: also called peptide containing carboxyfluorescein
As for B1, in assay [1], the “increase of the fluorescence intensity (fold)” value (“increase … (fold)” below) is around 10 times.

B2: Glu(Rf1)-Leu-Lys-Lys-Leu-Leu-Lys-Leu-Leu-Lys-Lys-Leu-Leu-Lys-Leu-Lys(Rf2)-Cys-NH2 (peptide)
peptide: E(ethyldansyl)LKKLLKLLKKLLKLK(dabsyl)C-NH2
modifications: reading uncertain; also: printed as Glu(Rf1)-Leu-Lys-Lys-Leu-Leu-Lys-Leu-Leu-Lys-Lys-Leu-Leu-Lys-Leu-Lys(Rf2)-Cys-NH2
notes: Chemically synthesized designed peptide; Immobilized on a glass substrate in the assay; also called alpha-helix peptide with ethyldansyl-dabsyl labels, C-terminal Cys anchor
Turning to B2, the “increase … (fold)” value in assay [2] is around 5 times.

B3: Cys-Glu(Rf1)-Leu-Lys-Lys-Leu-Leu-Lys-Leu-Leu-Lys-Lys-Leu-Leu-Lys-Leu-Lys(Rf2)-NH2 (peptide)
peptide: CE(ethyldansyl)LKKLLKLLKKLLKLK(dabsyl)-NH2
modifications: reading uncertain; also: printed as Cys-Glu(Rf1)-Leu-Lys-Lys-Leu-Leu-Lys-Leu-Leu-Lys-Lys-Leu-Leu-Lys-Leu-Lys(Rf2)-NH2
notes: Chemically synthesized designed peptide; Immobilized on a glass substrate in the assay; also called alpha-helix peptide with ethyldansyl-dabsyl labels, N-terminal Cys anchor
B3: the “increase … (fold)” value in assay [2] is around 5 times.
